Assay [1] concerns the target β2YFP nAChR subunit (mouse) (UniProt Q9ERK7). As to the kind of experiment: FRET or BRET; sensitized acceptor emission FRET between CFP-RIC-3 (donor) and α7-Venus, β2YFP (with nonfluorescent α4) or α4YFP (with nonfluorescent β2) co-transfected in living HEK293T cells at cDNA ratios of CFP-RIC-3 to subunit of 0.2:1, 0.5:1, 1:1 or 5:1. In general terms: BRET reads energy transfer from a luciferase to a nearby fluorophore.

Assay [2] concerns the target α7-Venus nAChR subunit (mouse) (UniProt P49582). The assay is described as above.

Drawing on PMC3637639, this text covers FRET efficiency (CFP-RIC-3 to β2YFP 0.2:1), FRET efficiency (CFP-RIC-3 to β2YFP 0.5:1) and FRET efficiency (CFP-RIC-3 to α7-Venus 1:1) for one substance.

UniProt Q9ERK7, sequence (Q9ERK7 26-501): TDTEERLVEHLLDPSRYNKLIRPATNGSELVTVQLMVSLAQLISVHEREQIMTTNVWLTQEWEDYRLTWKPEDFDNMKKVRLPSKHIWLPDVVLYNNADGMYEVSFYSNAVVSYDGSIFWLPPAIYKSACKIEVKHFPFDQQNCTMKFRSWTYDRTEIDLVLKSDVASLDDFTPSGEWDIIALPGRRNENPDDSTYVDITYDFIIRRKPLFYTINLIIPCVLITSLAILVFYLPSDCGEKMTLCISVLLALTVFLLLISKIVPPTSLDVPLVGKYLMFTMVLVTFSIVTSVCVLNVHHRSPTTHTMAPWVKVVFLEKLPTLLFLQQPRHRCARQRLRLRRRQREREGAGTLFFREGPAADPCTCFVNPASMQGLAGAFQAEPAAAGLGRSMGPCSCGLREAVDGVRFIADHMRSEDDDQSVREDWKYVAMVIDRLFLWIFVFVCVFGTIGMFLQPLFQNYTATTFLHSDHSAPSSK
UniProt P49582, sequence (P49582 23-502): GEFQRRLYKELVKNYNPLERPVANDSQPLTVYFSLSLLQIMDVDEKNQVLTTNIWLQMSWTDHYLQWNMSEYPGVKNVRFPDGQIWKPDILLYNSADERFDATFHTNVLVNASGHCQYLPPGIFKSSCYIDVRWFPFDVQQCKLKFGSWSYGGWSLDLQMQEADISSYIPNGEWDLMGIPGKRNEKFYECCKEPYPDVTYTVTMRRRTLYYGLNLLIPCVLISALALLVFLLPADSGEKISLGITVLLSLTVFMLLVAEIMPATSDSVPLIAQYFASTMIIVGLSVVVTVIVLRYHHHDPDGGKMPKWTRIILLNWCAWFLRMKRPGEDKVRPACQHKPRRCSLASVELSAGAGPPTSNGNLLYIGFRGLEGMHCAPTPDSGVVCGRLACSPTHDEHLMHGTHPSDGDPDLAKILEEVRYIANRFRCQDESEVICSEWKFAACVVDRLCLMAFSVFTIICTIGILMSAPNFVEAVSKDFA

On to “CFP-RIC-3 (cyan fluorescent protein fused to the N terminus of RIC-3) (from UniProt Q7Z5B4 29-369) (natural protein)”, for which, in assay [1], the FRET efficiency (CFP-RIC-3 to β2YFP 0.2:1) stood at 10.8% and the FRET efficiency (CFP-RIC-3 to β2YFP 0.5:1) came out at 10.7%. Also, the FRET efficiency (CFP-RIC-3 to α7-Venus 1:1) in assay [2] came out at 26%.
